# From the supplement of paper PMC9233669
# Fewer inactive variants are shown than the library holds.
# How the values were obtained:
# biotinyl-Ile-oxazolone = assay: self-aminoacylation, catalytic enhancement (BIO) (fold over background); higher = more active; k-Seq, kA / k0A0; sequences stand for … in GGGAAUGGAUCCACAUCUACGAAUUC…UUCACUGCAGACUUGACGAAGCUG
# How it was run: (§1)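 Catalytic enhancement equals the median kA over the uncatalyzed rate, the latter read from the low-activity peak of a bimodal Gaussian fit. Values of kA came from fitting each sequence's fraction reacted to a pseudo-first-order model, with 1000 bootstraps. Reacted RNA was captured with streptavidin and quantified by triplicate qPCR and Illumina sequencing after 90 minutes at room temperature with 2–1250 μM biotinyl-aminoacyl-oxazolone and 0.43 μM mutagenized RNA pools bearing a 21-nt variable region.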
# biotinyl-Met-oxazolone = assay: self-aminoacylation, catalytic enhancement (BMO) (fold over background); higher = more active; k-Seq, kA / k0A0; sequences stand for … in GGGAAUGGAUCCACAUCUACGAAUUC…UUCACUGCAGACUUGACGAAGCUG
# How it was run: as §1
# biotinyl-Phe-oxazolone = assay: self-aminoacylation, catalytic enhancement (BFO) (fold over background); higher = more active; k-Seq, kA / k0A0; sequences stand for … in GGGAAUGGAUCCACAUCUACGAAUUC…UUCACUGCAGACUUGACGAAGCUG
# How it was run: as §1
# biotinyl-Leu-oxazolone = assay: self-aminoacylation, catalytic enhancement (BLO) (fold over background); higher = more active; k-Seq, kA / k0A0; sequences stand for … in GGGAAUGGAUCCACAUCUACGAAUUC…UUCACUGCAGACUUGACGAAGCUG
# How it was run: as §1
# biotinyl-Trp-oxazolone = assay: self-aminoacylation, catalytic enhancement (BWO) (fold over background); higher = more active; k-Seq, kA / k0A0; sequences stand for … in GGGAAUGGAUCCACAUCUACGAAUUC…UUCACUGCAGACUUGACGAAGCUG
# How it was run: as §1
# biotinyl-Val-oxazolone = assay: self-aminoacylation, catalytic enhancement (BVO) (fold over background); higher = more active; k-Seq, kA / k0A0; sequences stand for … in GGGAAUGGAUCCACAUCUACGAAUUC…UUCACUGCAGACUUGACGAAGCUG
# How it was run: as §1
Sequence,self-aminoacylation (biotinyl-Ile-oxazolone),self-aminoacylation (biotinyl-Met-oxazolone),self-aminoacylation (biotinyl-Phe-oxazolone),self-aminoacylation (biotinyl-Leu-oxazolone),self-aminoacylation (biotinyl-Trp-oxazolone),self-aminoacylation (biotinyl-Val-oxazolone)
AUUCGCCUAGGUCAUCGCGUG [Fam2.2 aminoacylation ribozyme variant],10,19.2,126,23.4,17.6,10.9
AUUCACCGUGGUCAUCGGGUG [Fam2.2 aminoacylation ribozyme variant],5.23,9.04,59.5,9.19,8.84,6.1
AUUACUCUGGUCAUCGGGUGA [Fam2.1 aminoacylation ribozyme variant],5.43,10.1,39.7,11.8,12.2,6.05
ACGGUUGCUAAUAGUCGCAAG [Fam3.1 aminoacylation ribozyme variant],1.3,1.19,2.51,1.31,1.38,1.32
CUAAUUCAAACAAUCGGUCCG [Fam1A.1 aminoacylation ribozyme variant],0.553,0.575,0.604,0.732,0.513,0.539
AAGUUUGUUAAUAGUCGUAAG [Fam3.1 aminoacylation ribozyme variant],0.929,0.893,1.38,0.902,0.911,0.808
AUUACCGUGGUCAUCGGGUGA [Fam2.1 aminoacylation ribozyme variant],7.08,11.7,105,11.9,17.3,8.1
CCACACUGCAAGGAAUCGGUC [Fam1B.1 aminoacylation ribozyme variant],1.39,1.35,3.84,1.3,1.51,1.32
AACUUUGCUACUAGUCGCAAG [Fam3.1 aminoacylation ribozyme variant],2.14,2.34,3.3,1.91,2.43,2.24
CCACACAUCAAGAAAUCGGUC [Fam1B.1 aminoacylation ribozyme variant],0.732,0.61,1.2,0.792,0.645,0.776
AAGUUGGCUAAUAGUCGCAAC [Fam3.1 aminoacylation ribozyme variant],1.75,1.31,2.17,1.42,1.93,1.4
AGCACCCUGGUCAUCGAGUGA [Fam2.1 aminoacylation ribozyme variant],4.58,8.03,6.9,6.84,9.35,3.89
CUACUUCAAACUAUCGCUCUG [Fam1A.1 aminoacylation ribozyme variant],0.732,0.609,0.781,0.678,0.664,0.786
AUUGACCUAGGUCAUCGGGUA [Fam2.2 aminoacylation ribozyme variant],20.4,47.1,355,59.5,31.5,16.7
AAGGUCGCUAAUAGUCGCAAG [Fam3.1 aminoacylation ribozyme variant],–,–,2.86,–,2.4,2.13
CCACACUUCACGCAAUCGGCC [Fam1B.1 aminoacylation ribozyme variant],2.2,2.28,13.9,–,4.2,3.47
UUUCACCUAGGUAAUCGGGUG [Fam2.2 aminoacylation ribozyme variant],2.1,2.66,13.1,2.27,3.75,–
AUUCACCUAGCUCAUCGGGUG [Fam2.2 aminoacylation ribozyme variant],–,–,7.85,2.05,–,2.1
ACUACCCUGGUCAUCGAGGGA [Fam2.1 aminoacylation ribozyme variant],2.12,3.62,2.42,3.13,3.04,–
AUUCACCGAGGUCAUCGGGUC [Fam2.2 aminoacylation ribozyme variant],2.18,–,7.57,2.52,–,2.71
AAGCUUGCUUAUAGUCGCAAG [Fam3.1 aminoacylation ribozyme variant],2.13,–,3.55,–,–,–
AUUCACCUAAGUCAUCGGGUA [Fam2.2 aminoacylation ribozyme variant],2.81,2.44,–,3,2.8,2.62
ACGUUUGCUAAUAGUCGCAUG [Fam3.1 aminoacylation ribozyme variant],2.21,2.14,3.06,2.5,–,–
CCACACUUCGCGCAAUCGGUC [Fam1B.1 aminoacylation ribozyme variant],2.21,–,10.5,2.41,2.77,2.51
ACGUUUGCUAAUAGUCGCAAA [Fam3.1 aminoacylation ribozyme variant],2.01,–,2.87,–,2.36,–
AUCACCCUGGUCAUCGAGGGA [Fam2.1 aminoacylation ribozyme variant],–,2.2,12.5,3.12,2.94,2.03

Sequence,self-aminoacylation (biotinyl-Ile-oxazolone),self-aminoacylation (biotinyl-Met-oxazolone),self-aminoacylation (biotinyl-Phe-oxazolone),self-aminoacylation (biotinyl-Leu-oxazolone),self-aminoacylation (biotinyl-Trp-oxazolone),self-aminoacylation (biotinyl-Val-oxazolone)
AAGCUUGCUAAUAGUCGCAAU [Fam3.1 aminoacylation ribozyme variant],2.93,2.34,2.59,–,2.66,–
AUUCACCUCGGUCAUCGGCUG [Fam2.2 aminoacylation ribozyme variant],–,–,8.33,–,2.02,2.65
AAGUAUGCUAAUAGUCGCGAG [Fam3.1 aminoacylation ribozyme variant],2.14,–,5.66,2.21,4.06,–
CGACACUUCAAGCAAUCGGUG [Fam1B.1 aminoacylation ribozyme variant],2.4,2.37,–,2.22,–,2.27
CUUCACCUAGAUCAUCGGGUG [Fam2.2 aminoacylation ribozyme variant],–,3.54,8.35,2.86,3.41,2.12
AUUCACGUAGGUCAUCGGGCG [Fam2.2 aminoacylation ribozyme variant],2.07,2.41,5.97,2.57,–,2.56
AUUGCCCUGGUCAUCGAGCGA [Fam2.1 aminoacylation ribozyme variant],–,2.55,3.91,3.48,3.11,2.33
AUUCACUUAGUUCAUCGGGUG [Fam2.2 aminoacylation ribozyme variant],2.18,2.58,11.1,2.93,3.28,–
AUUACCCUGGACUUCGAGUGA [Fam2.1 aminoacylation ribozyme variant],–,2.96,11.4,3.17,4.38,2.17
CUACUUCAAACAUUCGGGCUG [Fam1A.1 aminoacylation ribozyme variant],2.24,2.06,–,–,–,2.14
CCGCGCUUCAAGCAAUCGGUC [Fam1B.1 aminoacylation ribozyme variant],–,2.37,158,3.16,77.2,2.74
CCACGCUUCAAGCAAUCGGCC [Fam1B.1 aminoacylation ribozyme variant],–,–,7.98,–,8.15,2.77
AUUACCCUGGUUAUCGAGUGU [Fam2.1 aminoacylation ribozyme variant],–,2.66,3.12,2.57,3.92,–
AGUCACCUAGGUCAUCUGGUG [Fam2.2 aminoacylation ribozyme variant],–,2.31,15.2,2.59,2.38,–
AUUACCGUGGUGAUCGAGUGA [Fam2.1 aminoacylation ribozyme variant],–,3.87,15.6,3.67,5.02,2.31
AUUACCCUGGUCAUUGAGUGG [Fam2.1 aminoacylation ribozyme variant],–,2.54,2.08,2.66,3.09,–
AAUUUUGGUAAUAGUCGCAAG [Fam3.1 aminoacylation ribozyme variant],2.06,2.19,2.19,–,–,–
CUACUGCAAACAAUCGGCCUG [Fam1A.1 aminoacylation ribozyme variant],–,2.1,3.31,2.27,2.81,2.27
ACGUUUGCUAAUAGUCGCGAG [Fam3.1 aminoacylation ribozyme variant],2.65,–,10.4,2.48,–,2.12
AAGUUCGCCAAUAGUCGCAAG [Fam3.1 aminoacylation ribozyme variant],2.29,2.18,2.83,2.67,2.98,–
AUUCACCUAGGGCAUCGGGGG [Fam2.2 aminoacylation ribozyme variant],2.98,2.65,7.22,3.63,–,2.93
AUCACCCUGGUCAUCGAGCGA [Fam2.1 aminoacylation ribozyme variant],2.01,2.16,–,3.35,2.62,2.53
CCACACGUCAAGCAAUCGGGC [Fam1B.1 aminoacylation ribozyme variant],–,–,2.86,–,–,2.23
CCCCGCUUCAAGCAAUCGGUC [Fam1B.1 aminoacylation ribozyme variant],–,2.12,142,3.73,70.4,2.69
AUUCAGCUAGGUCAUCUGGUG [Fam2.2 aminoacylation ribozyme variant],–,2.3,13.4,2.35,2.25,–
AUUACCCUGGUCAUCGAGCCA [Fam2.1 aminoacylation ribozyme variant],2.01,2.36,2.92,2.23,3.35,–
